This is an account of results in PMC4240654.

The target in assay [1] is BDD rFVIII (recombinant B-domain-deleted factor VIII, ReFacto / Xyntha) (UniProt P00451).
Assay [2] has as its target SC rFVIIIFc (single chain recombinant factor VIII Fc fusion protein) (human).
Assay [3] addresses SC rFVIIIFc R1645A/R1648A (human).
For assay [4], the target named is rFVIIIFc (recombinant factor VIII Fc fusion protein) (human) (UniProt P00451).

Regarding FIXa (activated factor IX) (enzyme), in assay [1], the Apparent K D (FIXa-FVIIIa affinity), FXa generation assay on synthetic phospholipids, thrombin-activated BDD rFVIII (ReFacto) amounted to 4.5 nM. Also, the Apparent K D (FIXa-FVIIIa affinity), FXa generation assay on synthetic phospholipids, thrombin-activated SC rFVIIIFc in assay [2] was found to be 4.1 nM. The Apparent K D (FIXa-FVIIIa affinity), FXa generation assay on synthetic phospholipids, thrombin-activated SC rFVIIIFc R1645A/R1648A in assay [3] was 3.8 nM. Moreover, the Apparent K D (FIXa-FVIIIa affinity), FXa generation assay on synthetic phospholipids, thrombin-activated rFVIIIFc in assay [4] was 5.5 nM.
